Here are results for 13 molecules from patent US20250049970A1, “DLL3 TARGETING PEPTIDES AND CONSTRUCTS THEREOF” (MARIANA ONCOLOGY INC., priority 2023, published 2025).

Values joined by “and” are separate entries in the source; they are usually repeats but may differ in a detail not shown here. Equal values may be shown once. *1 amine or outer side, *2 acyl side, *3 side chain or, on linkers, in order; H or OH if unused. Bridges are numbered along the chain shown (N, C = ends). Side-chain parts run from the residue outwards. [ ]: non-standard residue; d: D form. The star is where a group is joined. PipA(acetate-DOTA) = (3-(4-piperidinyl)-Ala)-(1,4,7,10-tetraazacyclododecane-1,4,7-triyl)triacetic acid, O=C(O)CN1CCN(CC(=O)O)CCN(CC(=O)N2CCC(C[C@H](N[*:1])C(=O)[*:2])CC2)CCN(CC(=O)O)CC1; PipA(Peg) = 3-(4-piperidinyl)-Ala-(3-hydroxypropanoic acid), O=C(CCO[*:3])N1CCC(C[C@H](N[*:1])C(=O)[*:2])CC1; Ala(1-CH2CO2H-4-piperidyl) = N[C@@H](CC1CCN(CC(=O)O)CC1)C(=O)O; Ala(piperidin-4-yl) = O=C([C@H](CC1CCN([*:3])CC1)N[*:1])[*:2]; DOTA = O=C(O)CN1CCN(CC(=O)O)CCN(CC(=O)*)CCN(CC(=O)O)CC1; PEG8 = NCCOCCOCCOCCOCCOCCOCCOCCOCCC(=O)O; 2Nal = N[C@@H](Cc1ccc2ccccc2c1)C(=O)O; NMetBuAla = CN[C@@H](CC(C)(C)C)C(=O)O; Ile(3-Me) = CCC(C)(C)[C@H](N)C(=O)O; tBuAla = CC(C)(C)C[C@H](N)C(=O)O; Chg = N[C@H](C(=O)O)C1CCCCC1; NMeNle = CCCC[C@H](NC)C(=O)O; Tle = CC(C)(C)[C@H](N)C(=O)O; plPh = not defined here; CH2 = C([*:1])[*:2] A value given as a limit tells only on which side of the number the result lay.

One assay concerns the target T1, DLL3 on CT26.DLL3 cells (Homo sapiens (Human), UniProt Q9NYJ7 27-618).
T1 construct: CT26.DLL3 are engineered cells to express DLL3
T1 sequence: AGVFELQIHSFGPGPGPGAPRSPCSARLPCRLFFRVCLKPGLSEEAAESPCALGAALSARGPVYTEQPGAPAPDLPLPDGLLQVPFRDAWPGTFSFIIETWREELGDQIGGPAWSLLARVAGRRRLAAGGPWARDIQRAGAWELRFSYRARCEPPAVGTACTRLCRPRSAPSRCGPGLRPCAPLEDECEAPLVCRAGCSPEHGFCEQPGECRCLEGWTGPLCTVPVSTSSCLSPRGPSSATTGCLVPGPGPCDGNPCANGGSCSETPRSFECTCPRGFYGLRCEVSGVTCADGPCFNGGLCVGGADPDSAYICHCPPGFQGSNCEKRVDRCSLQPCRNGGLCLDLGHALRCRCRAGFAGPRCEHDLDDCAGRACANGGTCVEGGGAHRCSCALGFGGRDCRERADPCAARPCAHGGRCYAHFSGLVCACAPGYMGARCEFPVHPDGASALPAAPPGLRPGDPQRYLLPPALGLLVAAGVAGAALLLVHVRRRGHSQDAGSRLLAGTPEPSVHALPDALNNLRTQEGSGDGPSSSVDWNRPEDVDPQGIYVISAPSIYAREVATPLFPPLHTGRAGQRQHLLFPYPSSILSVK
As to the kind of experiment: [177Lu]Lu-labelled peptide on CT26.DLL3 cells, 1 h 37 C, gamma counter; A = %<=25. The procedure: Adherent cell studies: The cells were cultured in appropriate culture media (20 mL) in tissue culture treated T150 flasks at 37° C. and 5% C02. Adherent cells were detached (60-70% confluent) using 5 mL Versene at 37° C. for 3 minutes. After confirming the viability using countess and count of detached cells using Trypan blue, the cells were centrifuged at 4° C. for 5 minutes (1,000 rpm). The cell pellet obtained was washed once with PBS and resuspended in 1% PBSA to obtain the desired cell concentration (5-25 million cells/mL).
Total uptake: Cells were incubated with 300 μL (0.8 μCi) of the incubation buffer (containing radiolabeled peptide [¹⁷⁷Lu]Lu-test peptide) for 1 hour at 37° C. (Table 10). Post incubation, the cells were pelleted and washed 2 times using cold PBS+1% BSA. The supernatant and washes were combined and counted together as “unbound fraction” in a gamma counter. The cells were then resuspended in 300 μL of 1% PBS+1% BSA and counted in the gamma counter as “bound fraction”.

A further assay has as its target T2, DLL3 on SHP-77 cells (human, UniProt Q9NYJ7 27-618).
T2 construct: SHP-77 cells are human-derived, non-engineered SCLC cells
T2 sequence: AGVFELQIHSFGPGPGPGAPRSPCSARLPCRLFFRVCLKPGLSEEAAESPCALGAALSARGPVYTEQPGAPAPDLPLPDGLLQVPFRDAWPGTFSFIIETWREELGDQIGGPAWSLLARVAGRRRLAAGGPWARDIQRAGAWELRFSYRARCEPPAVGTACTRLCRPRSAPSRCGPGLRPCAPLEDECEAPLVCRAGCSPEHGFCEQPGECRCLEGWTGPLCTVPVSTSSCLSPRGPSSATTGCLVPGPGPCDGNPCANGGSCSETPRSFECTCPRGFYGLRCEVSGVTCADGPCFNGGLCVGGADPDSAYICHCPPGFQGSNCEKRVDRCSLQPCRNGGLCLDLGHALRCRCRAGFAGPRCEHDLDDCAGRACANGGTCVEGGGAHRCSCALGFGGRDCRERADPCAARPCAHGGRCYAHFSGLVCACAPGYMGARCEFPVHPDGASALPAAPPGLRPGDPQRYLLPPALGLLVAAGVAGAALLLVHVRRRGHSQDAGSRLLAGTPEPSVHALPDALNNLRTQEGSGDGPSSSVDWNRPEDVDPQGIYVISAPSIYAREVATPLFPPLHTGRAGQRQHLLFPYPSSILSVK
Nature of the assay: [177Lu]Lu-labelled peptide on SHP-77 cells, 1 h 37 C, gamma counter; C = %>50.

The target in assay [1] is DLL3 on CT26.DLL3 cells (Homo sapiens (Human)) (UniProt Q9NYJ7). Nature of the assay: [177Lu]Lu-labelled peptide on CT26.DLL3 cells, 1 h 37 C, gamma counter; B = 25<%<=50.

B1: Cpd No. 315 (peptide)
peptide: Ac-WT[Tle]CNN[2Nal]K(DOTA)DCWP-NH2
modifications: disulfide 4-10
SMILES: CC(=O)N[C@@H](Cc1c[nH]c2ccccc12)C(=O)N[C@H](C(=O)N[C@H](C(=O)N[C@H]1CSSC[C@@H](C(=O)N[C@@H](Cc2c[nH]c3ccccc23)C(=O)N2CCC[C@H]2C(N)=O)NC(=O)[C@H](CC(=O)O)NC(=O)[C@H](CCCCNC(=O)CN2CCN(CC(=O)O)CCN(CC(=O)O)CCN(CC(=O)O)CC2)NC(=O)[C@H](Cc2ccc3ccccc3c2)NC(=O)[C@H](CC(N)=O)NC(=O)[C@H](CC(N)=O)NC1=O)C(C)(C)C)[C@@H](C)O
With B1, the “% Binding” value in the assay with DLL3 on CT26.DLL3 cells was not above 25%.

Turning to Ac-WT[Chg]CNN[2Nal]K(DOTA)DCWP-NH2 (disulfide 4-10) [Cpd No. 318], the “% Binding” value with DLL3 on CT26.DLL3 cells was not above 25%.

Molecule Ac-WT[NMetBuAla]C[Ala(piperidin-4-yl)]N[2Nal]K(DOTA)DCWP[dK]-NH2 (bridge 4-10; not fully specified (residue 13)) [Cpd No. 445] returned a % Binding in the assay with DLL3 on SHP-77 cells of more than 50%.

In the assay with DLL3 on SHP-77 cells, Ac-WT[NMetBuAla]C[PipA(Peg)]N[2Nal]K(DOTA)DCWP-NH2 (linker 4-10 via CH2) [Cpd No. 448] returned a % Binding of more than 50%.

For Ac-WT[NMetBuAla]C[Ala(piperidin-4-yl)]N[2Nal]K(DOTA)DCWP-OH (linker 4-10 via CH2) [Cpd No. 442], the % Binding with DLL3 on SHP-77 cells was more than 50%.

Take Ac-WT[NMeNle]C[Ala(piperidin-4-yl)]N[2Nal]K(DOTA)DCWP-NH2 (disulfide 4-10) [Cpd No. 300]: the % Binding in assay [1] was > 25% and < 50%.

For Ac-WT[Ile(3-Me)]CNN[2Nal]K(DOTA)DCWP-NH2 (disulfide 4-10) [Cpd No. 321], in the assay with DLL3 on CT26.DLL3 cells, the “% Binding” value is not above 25%.

B2: Cpd No. 417 (peptide)
peptide: Ac-WT[Chg]C[Ala(piperidin-4-yl)]N[2Nal]K(DOTA)DCWP[dK]([PEG8-plPh])-NH2
modifications: bridge 4-10; not fully specified (bridges); reading uncertain; also: bridge 4-10: thioacetal per mods, disulfide
As to B2, the % Binding in assay [1] is > 25% and < 50%.

As to Ac-WT[NMetBuAla]C[Ala(1-CH2CO2H-4-piperidyl)]N[2Nal]K(DOTA)DCWP-NH2 (linker 4-10 via CH2) [Cpd No. 447], the % Binding with DLL3 on SHP-77 cells was more than 50%.

Turning to Ac-WT[NMetBuAla]C[Ala(piperidin-4-yl)]N[2Nal]K(DOTA)DCWP-NH2 (bridge 4-10; not fully specified (bridges)) [Cpd No. 153], the % Binding with DLL3 on SHP-77 cells was more than 50%.

In the case of Ac-WT[NMetBuAla]C[PipA(acetate-DOTA)]N[2Nal]K(DOTA)DCWP-NH2 (linker 4-10 via CH2) [Cpd No. 449], the % Binding in the assay with DLL3 on SHP-77 cells is more than 50%.

In the case of Ac-WT[Tle]C[Ala(piperidin-4-yl)]N[2Nal]K(DOTA)DCWP-NH2 (disulfide 4-10) [Cpd No. 301], in assay [1], the % Binding is > 25% and < 50%.

As for Ac-WT[tBuAla]CNN[2Nal]K(DOTA)DCWP-NH2 (disulfide 4-10) [Cpd No. 316], the “% Binding” value with DLL3 on CT26.DLL3 cells was not above 25%.
